Assay [1] concerns the target T1, hDLL4-Fc (Sino Biologics) (human, UniProt Q9NR61 27-524, limits assumed).
T1 construct: Bought from Sino Biologics; also called Recombinant Fc-tagged hDLL4; recombinant hDLL4; not shown: Fc tag of the bought protein
Kind of assay: SPR (Biacore T200), hDLL4-Fc on the chip, decoy as analyte, KD = kd/ka. As to the method: (§1) Affinity Analysis. The binding kinetics of N1₁₀₋₁₄Fc and N4₁₀₋₁₄Fc were analyzed using a Surface Plasmon Resonance (SPR)-based assay on the BIACORE™ T200 system (GE Healthcare). Human IgG Fc (Sino Biologics) was first immobilized on a CM5 biosensor chip. Subsequently, an appropriate concentration of hDLL4-Fc (Sino Biologics) and hJAG1-Fc (Sino Biologics) was captured to the surface at a Response Unit (RU) of up to 20,000. Various concentrations of N1₁₀₋₁₄Fc and N4₁₀₋₁₄Fc were then passed through the chip with running buffer (1×HBS-N (10 mM HEPES, 150 mM NaCl) with 0.005% polysorbate 20, 1 mM CaCl₂), 2 mM MgCl₂, PH 7.4). After each reaction, the captured ligands and analyte were removed by regeneration buffer (1×HBS-N (10 mM HEPES, 150 mM NaCl) with 0.005% polysorbate 20, 1 mM CaCl₂), 2 mM MgCl₂, pH 7.4). The whole reaction was conducted at 25° C. and a flow rate of 25 μl/min. Sensorgrams of each concentration were obtained and analyzed by BIACORE™ evaluation software (GE Healthcare). The equilibrium constant KD was calculated from the ratio of the dissociation rate constant kd to the association rate constant kₐ (kd/kₐ).
Surface plasmon resonance (SPR) spectroscopy was used to characterize and quantify the interactions between these proteins. […]
(In general: In SPR one partner is held on a chip, and binding of the other changes the refractive index at the surface.)

Assay [2] deals with T1, hDLL4-Fc (Sino Biologics). Briefly: SPR (Biacore T200), hDLL4-Fc on the chip, decoy as analyte, multi-cycle kinetics, 25 C. As to the method: as §1
Surface plasmon resonance (SPR) spectroscopy was used to characterize and quantify the interactions between these proteins. Recombinant Fc-tagged hDLL4 and hJAG1 were immobilized on the sensor chip using amine coupling and multi-cycle kinetic experiments were performed using increasing concentrations of either N1₁₀₋₁₄Fc or N4₁₀₋₁₄Fc. As a control, recombinant IgG Fc was immobilized on the sensor chip.

Usually Kd stands for the free concentration of one partner at which half of the binding sites on the other are occupied at equilibrium, for simple one-to-one binding. High values mean weaker binding, low ones tighter binding. As usually defined, the koff is a measure of how fast the partners let go of each other. Read a high koff as fast dissociation. One may read the kon as the rate constant with which the complex forms. Lower therefore signals slow association.

T1 sequence (Q9NR61 27-524 limits assumed): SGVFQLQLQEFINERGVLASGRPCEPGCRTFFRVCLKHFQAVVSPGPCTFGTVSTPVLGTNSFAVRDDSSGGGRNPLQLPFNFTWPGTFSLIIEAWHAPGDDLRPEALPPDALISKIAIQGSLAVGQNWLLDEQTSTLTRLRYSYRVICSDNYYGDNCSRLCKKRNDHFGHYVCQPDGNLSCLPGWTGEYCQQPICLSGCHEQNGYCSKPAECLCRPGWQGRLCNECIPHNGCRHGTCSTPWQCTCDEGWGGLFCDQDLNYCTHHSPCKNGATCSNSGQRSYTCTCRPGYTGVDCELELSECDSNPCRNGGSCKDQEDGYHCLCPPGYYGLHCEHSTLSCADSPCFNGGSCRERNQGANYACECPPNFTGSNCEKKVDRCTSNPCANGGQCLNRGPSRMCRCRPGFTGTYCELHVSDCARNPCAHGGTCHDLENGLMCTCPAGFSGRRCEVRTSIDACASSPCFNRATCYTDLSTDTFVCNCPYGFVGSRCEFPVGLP

B1: N410-14Fc (human Notch4 EGF-like repeats 10-14 fused to human IgG Fc) (Fc fusion)
chain: LEDMCLSQPCHGDAQCSTNPLTGSTLCLCQPGYSGPTCHQDLDECLMAQQGPSPCEHGGSCLNTPGSFNCLCPPGYTGSRCEADHNECLSQPCHPGSTCLDLLATFHCLCPPGLEGQLCEVETNECASAPCLNHADCHDLLNGFQCICLPGFSGTRCEEDIDECRSSPCANGGQCQDQPGAFHCKCLPGFEGPRCQ
notes: Produced in HEK293 cells; also called Notch4 peptibody; Notch4 decoy; not shown: human IgG Fc
In turn, B1 had a dissociation constant Kd in assay [1] of 962 nM. In assay [2], this molecule had an off-rate (koff) of 0.0099 s⁻¹ and a kon of 10300 M⁻¹ s⁻¹.

B2: N110-14Fc (human Notch1 EGF-like repeats 10-14 fused to human IgG Fc) (Fc fusion)
chain: ARGPRCISNPCNEGSNCDTNPVNGKAICTCPSGYTGPACSQDVDECSLGANPCEHAGKCINTLGSFECQCLQGYTGPRCEIDVNECVSNPCQNDATCLDQIGEFQCICMPGYEGVHCEVNTDECASSPCLHNGRCLDKINEFQCECPTGFTGHLCQYDVDECASTPCKNGAKCLDGPNTYTCVCTEGYTGTHCE
notes: Produced in HEK293 cells; also called Notch1 peptibody; Notch1 decoy; not shown: human IgG Fc
As for B2, in assay [1], the dissociation constant (Kd) came to 605 nM. In assay [2], this molecule gave a koff of 0.019 s⁻¹ and a kon of 31500 M⁻¹ s⁻¹.

These data come from US20250223332A1 (BOARD OF TRUSTEES OF THE UNIVERSITY OF ILLINOIS, published 2025).
